Reference: IntAct's records for PubMed 12565857

B1: Chromobox protein homolog 5 (Mus musculus), Q61686 (parent)
chain: MGKKTKRTADSSSSEDEEEYVVEKVLDRRMVKGQVEYLLKWKGFSEEHNTWEPEKNLDCPELISEFMKKYKKMKEGENNKPREKSEGNKRKSSFSNSADDIKSKKKREQSNDIARGFERGLEPEKIIGATDSCGDLMFLMKWKDTDEADLVLAKEANVKCPQIVIAFYEERLTWHAYPEDAENKEKESAKS
partner: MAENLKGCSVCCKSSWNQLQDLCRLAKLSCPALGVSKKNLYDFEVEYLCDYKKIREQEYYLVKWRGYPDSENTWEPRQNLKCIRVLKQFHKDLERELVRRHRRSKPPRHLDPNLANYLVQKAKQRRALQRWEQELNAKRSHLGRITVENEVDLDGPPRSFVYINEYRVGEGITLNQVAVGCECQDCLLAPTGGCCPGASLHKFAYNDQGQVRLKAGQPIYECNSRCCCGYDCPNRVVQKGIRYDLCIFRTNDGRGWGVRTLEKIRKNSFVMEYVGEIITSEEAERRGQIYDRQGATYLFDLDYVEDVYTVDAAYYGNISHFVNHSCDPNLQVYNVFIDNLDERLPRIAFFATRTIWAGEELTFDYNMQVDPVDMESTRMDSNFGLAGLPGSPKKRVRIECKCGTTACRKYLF

Variants of: B1
Conditions: with suv91_mouse Suv39h1, O54864

Row | Variant | effect of a mutation on the interaction
1 | I165E;Y168E | disrupting interaction
